Assay results from US20070015242.

B1: matrix metalloproteinase-7 (matrilysin, MMP-7), active enzyme (enzyme, UniProt P09237 95-267, looked up, species assumed)
Matrilysin: YSLFPNSPKWTSKVVTYRIVSYTRDLPHITVDRLVSKALNMWGKEIPLHFRKVVWGTADIMIGFARGAHGDSYPFDGPGNTLAHAFAPGTGLGGDAHFDEDERWTDGSSLGINFLYAATHELGHSLGMGHSSDPNAVMYPTYGNGDPQNFKLSQDDIKGIQKLYGKRSNSRKK
modifications: APMA-activated

Biological target: recombinant NC1 fragment of type XVIII collagen (UniProt P39061)
UniProt P39061, sequence (P39061 whole entry, looked up, the tested form may be a part): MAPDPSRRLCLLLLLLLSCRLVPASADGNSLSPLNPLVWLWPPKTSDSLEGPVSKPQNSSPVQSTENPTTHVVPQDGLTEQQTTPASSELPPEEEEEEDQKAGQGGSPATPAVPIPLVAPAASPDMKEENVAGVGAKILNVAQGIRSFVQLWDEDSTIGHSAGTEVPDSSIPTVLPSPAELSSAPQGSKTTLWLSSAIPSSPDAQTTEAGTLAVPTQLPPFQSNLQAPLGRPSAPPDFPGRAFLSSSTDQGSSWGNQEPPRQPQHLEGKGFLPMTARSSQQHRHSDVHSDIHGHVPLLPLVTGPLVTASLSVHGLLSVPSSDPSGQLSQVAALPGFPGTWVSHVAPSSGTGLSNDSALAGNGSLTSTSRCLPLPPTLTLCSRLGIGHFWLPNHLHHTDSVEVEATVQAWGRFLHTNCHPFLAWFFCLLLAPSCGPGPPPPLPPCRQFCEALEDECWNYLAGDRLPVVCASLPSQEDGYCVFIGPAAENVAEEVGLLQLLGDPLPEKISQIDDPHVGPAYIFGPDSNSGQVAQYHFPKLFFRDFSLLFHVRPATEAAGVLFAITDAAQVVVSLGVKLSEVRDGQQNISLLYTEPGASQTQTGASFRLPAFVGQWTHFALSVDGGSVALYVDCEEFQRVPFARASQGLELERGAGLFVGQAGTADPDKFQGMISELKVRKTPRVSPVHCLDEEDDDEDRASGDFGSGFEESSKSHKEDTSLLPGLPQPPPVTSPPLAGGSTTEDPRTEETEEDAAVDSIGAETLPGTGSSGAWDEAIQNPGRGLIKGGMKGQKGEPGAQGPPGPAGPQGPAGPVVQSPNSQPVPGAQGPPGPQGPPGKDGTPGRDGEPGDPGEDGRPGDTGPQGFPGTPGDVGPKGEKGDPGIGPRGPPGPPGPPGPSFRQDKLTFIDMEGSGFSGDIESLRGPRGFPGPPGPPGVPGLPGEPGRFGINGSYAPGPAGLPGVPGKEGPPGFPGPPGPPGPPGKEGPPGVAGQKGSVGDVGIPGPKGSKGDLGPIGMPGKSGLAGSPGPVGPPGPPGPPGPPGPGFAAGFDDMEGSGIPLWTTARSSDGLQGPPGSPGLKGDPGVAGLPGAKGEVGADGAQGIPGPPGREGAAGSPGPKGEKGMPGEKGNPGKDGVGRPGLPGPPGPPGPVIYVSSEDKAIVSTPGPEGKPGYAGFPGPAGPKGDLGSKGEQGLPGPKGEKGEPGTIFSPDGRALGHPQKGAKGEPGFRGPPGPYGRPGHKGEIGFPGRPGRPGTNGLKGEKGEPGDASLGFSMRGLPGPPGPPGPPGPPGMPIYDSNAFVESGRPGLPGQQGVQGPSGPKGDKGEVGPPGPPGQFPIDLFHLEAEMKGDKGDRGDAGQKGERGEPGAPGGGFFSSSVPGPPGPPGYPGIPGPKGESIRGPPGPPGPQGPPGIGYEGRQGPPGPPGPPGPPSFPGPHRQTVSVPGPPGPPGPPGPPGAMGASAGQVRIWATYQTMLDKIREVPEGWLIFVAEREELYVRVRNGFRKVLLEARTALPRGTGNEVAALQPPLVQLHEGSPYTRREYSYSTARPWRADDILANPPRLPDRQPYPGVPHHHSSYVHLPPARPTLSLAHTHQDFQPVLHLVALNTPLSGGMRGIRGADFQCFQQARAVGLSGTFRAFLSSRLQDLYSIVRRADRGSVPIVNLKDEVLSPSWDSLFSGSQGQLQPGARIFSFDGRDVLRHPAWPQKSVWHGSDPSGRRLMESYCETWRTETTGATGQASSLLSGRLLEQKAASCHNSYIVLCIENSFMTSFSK

| Molecule | cleavage of recombinant NC1 fragment (Western blot of degradation products) | cleavage of NC1 fragments at pH 5.5, 6.5 and 7.5 (gel) |
| --- | --- | --- |
| matrix metalloproteinase-14 (MMP-14), active enzyme | MMP-7 and MMP-14 cleaved the recombinant NC1 fragment to produce neostatin-7, neostatin-14 and several endostatin-containing fragments |  |
| matrix metalloproteinase-2 (MMP-2), active enzyme | Treatment of the recombinant NC1 fragment of type XVIII collagen with MMP-2 or -9, similar to control, did not produce NC1 degradation products |  |
| matrix metalloproteinase-9 (MMP-9), active enzyme | Treatment of the recombinant NC1 fragment of type XVIII collagen with MMP-2 or -9, similar to control, did not produce NC1 degradation products |  |
| B1 | MMP-7 and MMP-14 cleaved the recombinant NC1 fragment to produce neostatin-7, neostatin-14 and several endostatin-containing fragments | the cleavage of collagen XVIII/NC1 by MMP-7 is pH sensitive, and proceeds less efficiently at more acidic pH |
